Legend:
[1] = target: T1, CD3D/CD3E heterodimer (Sino Biologicals Cat. No. CT038-H2508H) (human, UniProt P04234 22-105; P07766 23-126); test: ELISA, antigen coated
T1 construct: bought; also called CD3 antigen; human CD3

[2] = target: T2, Sheep Fc-CD52 fusion protein (Absolute Antibody Cat. No. PR00205) (human, UniProt P31358 25-36); test: ELISA, antigen coated, antibody 5 µg/mL
T2 construct: bought; also called CD52 antigen; human CD52; not shown: sheep Fc

[3] = target: T1, CD3D/CD3E heterodimer (Sino Biologicals …); test: ELISA, antigen coated, antibody 5 µg/mL

B1: anti-CD52 (alemtuzumab variable regions) human IgG1 wild type reference (antibody)
heavy: not shown
light: not shown
notes: also called 4-1; wild-type CD52 antibody
binding result [1]: no binding (tested: 5 µg/mL) | Mean Absorbance [2]: 1.53 absorbance | Mean Absorbance [3]: 0.009 absorbance
